Measurements reported in patent publication US20240269196A1, “RESPIRATORY TREATMENTS USING SALMONID OIL COMPOSITIONS” (Hofseth Biocare ASA, priority 2020, published 2024).

Tests used:
[1] = tested on: eosinophils in healthy donor PMNL samples; experiment: Shape change assay: CCL11-stimulated eosinophil shape change in PMNL, flow cytometry (FSC); format: cell-based, human; details: Example 1, 3 μg/mL ApoA-IV pretreatment 30 min
Method: PMNL samples were pretreated with 3 μg/mL ApoA-IV (positive control), 100 μg/mL SO, and formulation vehicle (negative control) for 30 minutes and stimulated with serial dilutions of CCL11 for 20 minutes at 37° C. Shape change was monitored by flow cytometry as the increase of forward scatter (FSC) and was expressed as percent of the vehicle response. Note, eosinophils are distinguishable from neutrophils by their SSC properties and autofluorescence.
The chemotactic factor, CCL11, was used to prime eosinophils to immediately prepare for diapedesis through the endothelium by rearranging their cytoskeleton. This morphological change was detected by flow cytometry as an increase in the forward scatter properties of these cells. The effects of SO at 100 μg/mL was studied and compared to the known effect of 3 μg/mL ApoA-IV on eosinophil shape change in healthy donor PMNL samples. The pretreated samples were stimulated with serial dilutions of CCL11, and shape change was monitored by flow cytometry.
PMNL samples were pretreated with 100 μg/mL SO, heat, acid and base treated SO, krill oil, standard 18/12 fish oil, and formulation vehicle (negative control) for 30 minutes and stimulated with serial dilutions of CCL11 for 20 minutes at 37° C. Shape change was monitored by flow cytometry as the increase of forward scatter (FSC) and was expressed as percent of the vehicle response. Eosinophils were distinguishable from neutrophils by their SSC properties and auto-fluorescence.
The chemotactic factor, CCL11, was used to prime eosinophils to immediately prepare for diapedesis through the endothelium by rearranging their cytoskeleton. This morphological change was detected by flow cytometry as an increase in the forward scatter properties of these cells. The effects of SO at 100 μg/mL was studied and compared to the various processing treatments on SO, krill oil and standard 18/12 fish oil on eosinophil shape change in healthy donor PMNL samples. The pretreated samples were stimulated with serial dilutions of CCL11, and shape change was monitored by flow cytometry.

[2] = tested on: CD11b on eosinophils (PMNL surface); experiment: CD11b (integrin) upregulation assay, CCL11-stimulated PMNL, flow cytometry; format: cell-based, human; details: Example 1, 3 μg/mL ApoA-IV pretreatment 30 min
Method: PMNL samples were pretreated with 3 μg/mL ApoA-IV (positive control), 100 μg/mL SO, and formulation vehicle (negative control) for 30 minutes and incubated with serial dilutions of CCL11 for 30 minutes at 37° C. Samples were stained with anti-CD16-PE-Cy5 and anti-CD11b-PE (ICRF44) antibodies. Eosinophils were identified as CD16 negative cells. CD11b upregulation was analyzed by flow cytometry.
A precondition for eosinophil migration is upregulation of adhesion molecules such as the αmβ2 integrins (CD11b/CD18).
PMNL samples were pretreated with 100 μg/mL SO, heat, acid and base treated SO, krill oil, standard 18/12 fish oil, and formulation vehicle (negative control) for 30 minutes and incubated with serial dilutions of CCL11 for 30 minutes at 37° C. Samples were stained with anti-CD16-PE-Cy5 and anti-CD11b-PE (ICRF44) antibodies. Eosinophils were identified as CD16 negative cells. CD11b upregulation was analyzed by flow cytometry.

[3] = tested on: allergic human eosinophils; experiment: Apoptosis assay (Annexin V-FITC, flow cytometry); format: cell-based; details: Example 1; 3 μg/mL ApoA-IV; 18 hr incubation; IL-5 50 pM
Method: (§1) The allergic human eosinophils were placed in RPMI 1640 medium supplemented with IL-5 (50 pM), 1% FBS and PenStrep in the presence of 3 μg/mL ApoA-IV (positive control), 100 μg/mL SO, and formulation vehicle (negative control). Aliquots were removed after 18 hr incubation, washed twice in PBS, and resuspended in binding buffer. The eosinophil cells were stained using the Annexin V-FITC Apoptosis Detection Kit I, (Sigma Aldrich) and immediately analyzed by flow cytometry. Each sample was acquired for 1 min, and the total number of eosinophils gated on a forward scatter/side scatter plot and the percentage of live cells (annexin Vneg) and apoptotic cells (annexin Vpos) was recorded.
as §1, with “of” for “of 3 μg/mL ApoA-IV (positive control),”, “SO, heat, acid and base treated SO, krill oil, standard 18/12 fish oil,” for “SO,”, “Aliquots were removed after 18 hr incubation, washed twice in PBS, and resuspended in binding buffer.” left out, “recorded. […]” for “recorded.”

[4] = tested on: House Dust Mite (HDM) extract-induced murine asthma model; experiment: House Dust Mite (HDM) extract-induced murine asthma model: BAL fluid and spleen cellularity; format: in vivo, mice; details: 5 μg/animal, day 7 to day 14, N=5; for Percent eosinophil in spleen tissue (Mean): spleen on day 15
Method: For this purpose, normal saline (NS) was used as a vehicle control and Apolipoprotein A-IV (ApoA-IV) was used as a positive control, respectively. The study involved induction of asthmatic condition in mice using HDM extract and simultaneous evaluation of the effects of OmeGo Salmon oil (CARDIO softgels; 20 or 60 μg/animal) and ApoA-IV (5 μg/animal; as a positive control) on cosinophil modulation in mice.
On day 1, all 20 mice were anesthetized and sensitized intranasally with 1 μg HDM protein in 40 μL PBS. From day 7 to day 11, all 20 mice were challenged by daily intranasal application of 10 μg HDM protein in 40 μL PBS. Mice were randomly divided into four groups with five mice in each group for differential treatment from day 7 to day 14. From day 7 to day 14, each animal in the first group (G1) received 100 μL NS; each animal in the second group (G2) received 20 μg CARDIO in 100 μL NS; each animal in the third group (G3) received 60 μg CARDIO in 100 μL NS; and each animal in the fourth group (G4) received 5 μg ApoA-IV in 100 μL NS.
The Broncho-Alveolar Lavage (BAL) fluid and spleen were collected from all 20 mice on day 15, and cellularity of the collected samples were analyzed by flow cytometry.

B1: Apolipoprotein A-IV (protein, UniProt P06727 21-396, looked up)
Apolipoprotein A-IV: EVSADQVATVMWDYFSQLSNNAKEAVEHLQKSELTQQLNALFQDKLGEVNTYAGDLQKKLVPFATELHERLAKDSEKLKEEIGKELEELRARLLPHANEVSQKIGDNLRELQQRLEPYADQLRTQVSTQAEQLRRQLTPYAQRMERVLRENADSLQASLRPHADELKAKIDQNVEELKGRLTPYADEFKVKIDQTVEELRRSLAPYAQDTQEKLNHQLEGLTFQMKKNAEELKARISASAEELRQRLAPLAEDVRGNLRGNTEGLQKSLAELGGHLDQQVEEFRRRVEPYGENFNKALVQQMEQLRQKLGPHAGDVEGHLSFLEKDLRDKVNSFFSTFKEKESQDKTLSLPELEQQQEQQQEQQQEQVQMLAPLES
notes: positive control protein
[1]; CCL11 0.05 nM
  Shape change (100% as baseline) of PMNL: 100%
[1]; CCL11 0.10 nM
  Shape change (100% as baseline) of PMNL: 103%
[1]; CCL11 0.25 nM
  Shape change (100% as baseline) of PMNL: 105%
[1]; CCL11 0.50 nM
  Shape change (100% as baseline) of PMNL: 106%
[1]; CCL11 0.75 nM
  Shape change (100% as baseline) of PMNL: 108%
[1]; CCL11 1.00 nM
  Shape change (100% as baseline) of PMNL: 109%
[1]; CCL11 2.50 nM
  Shape change (100% as baseline) of PMNL: 109%
[1]; CCL11 5.00 nM
  Shape change (100% as baseline) of PMNL: 107%
[2]; CCL11 0.01 nM
  CB11b change (100% as baseline) on PMNL surface: 95%
[2]; CCL11 0.50 nM
  CB11b change (100% as baseline) on PMNL surface: 103%
[2]; CCL11 1.00 nM
  CB11b change (100% as baseline) on PMNL surface: 122%
[2]; CCL11 2.50 nM
  CB11b change (100% as baseline) on PMNL surface: 125%
[2]; CCL11 5.00 nM
  CB11b change (100% as baseline) on PMNL surface: 125%
[2]; CCL11 10.00 nM
  CB11b change (100% as baseline) on PMNL surface: 114%
[3]
  percentage of apoptotic cells (annexin Vpos): 60±3.8%
  percentage of live cells (annexin Vneg): 31.5±2.3%
[4]; BAL on day 15
  Cell count in BAL fluid: Eosinophil count (Mean): 28220
[4]
  Percent eosinophil in spleen tissue (Mean): 2.34%
[4]; listed as ApoA-IV
  Percent eosinophil in spleen tissue (Mean): significantly decreased
